Laboratory results as given in publication PMC6937582, “Human leukocyte antigen (HLA) class II peptide flanking residues tune the immunogenicity of a human tumor-derived epitope” (The Journal of Biological Chemistry, 2019).
Blank lines part the entries; values can stand above or below the substance they belong to.

Key:
[1] = biological target: HLA-DR1 (HLA-DRα*0101 and HLA-DRβ1*0101) (human); test: ELISA; competitive peptide-binding assay: test peptide 10^-4-10^-10 M against 4.5 nM biotinylated CLIP 99-117 marker peptide for 0.1 μg refolded HLA-DR1-CLIP 105-117; 20 mM MES, 140 mM NaCl, 0.02% NaN3, pH 5, overnight at 37 °C; HLA-DR1 captured on anti-DR L243, bound marker detected with streptavidin-HRP; % competitive inhibition, four-parameter fit
[2] = biological target: HLA-DR1 (HLA-DRα*0101 and HLA-DRβ1*0101); test: in vitro competition assay (HLA-DR1 peptide binding)
[3] = biological target: HLA-DR1 (HLA-DRα*0101 and HLA-DRβ1*0101) (human); test: ELISA

- IC50 [1]: 0.535 µM
Substance: 5T4_(11–30) peptide (from UniProt Q13641 11-30)

- IC50 [2]: 0.149 µM
Substance: 5T4_(111–130) 20-mer peptide E3A

Substance: IAV hemagglutinin_(306–319) epitope (peptide)
- IC50 [3]: 0.013 µM
